Source: publication PMC2850170 (The Biochemical journal, 2009)

Target: the molecule itself
Assay: SEC

B1: murine hexosaminidase D, short form (enzyme, mouse, UniProt Q3U4H6 1-486, looked up)
chain: MSSPTPFKMRLVHLDLKGAPPKVSYLSEVFPLFHALGANGLLIEYEDMFPYEGHLRLLRAKHAYSPSEVTEILRLARLSELEVIPLVQTFGHMEFVLKHAAFAHLREVALFPNTLNPHEAESLALVQAMIDQILELHRDVRWLHIGCDEVYYLGEGETSKQWLQQEQNSHAKLCLSHMQAVASHVLTQHPGVTPLVWDDMLRDIPQEQLKASGVPQLVEPVLWDYGADLDVHGKVFLIGKYQECGFQRLWAASAFKGATGASQALPPVEHHIRNHELWLQVAGSGPKDALQGIILTGWQRYDHFSVLCELLPVGIPSLAACLQSLVHGGFAEDVRLRAERFLGVSSLEIADTVSEGAGSFPGSDIHALVTQISLHLRSSVDTLLERNRYVTGWFSPYHRRRKLVHPVMIQHIQPEALSLLSRWNNLVQQLEVALQPVFYPDTIEEWLEENVLPSLQRLQDLLQDLGEAAARQPPPTSPGWDTGQNP
  stoichiometry N: 2
